The Human Domainome abundance scans (Beltran et al. 2025)

B1: POU domain, class 3, transcription factor 4, residues 280 to 335; numbered along this chain, P49335 (parent)
chain: KKRTSIEVSVKGVLETHFLKCPKPAAQEISSLADSLQLEKEVVRVWFCNRRQKEKR
B2: Chromodomain-helicase-DNA-binding protein 3, residues 374 to 426; numbered along this chain, Q12873 (parent)
chain: YETDHQDYCEVCQQGGEIILCDTCPRAYHLVCLDPELDRAPEGKWSCPHCEKE

Variants of: B1
Test: abundance fitness (aPCA) (normalised: wild type 0, dead -1); higher = more abundant; growth selection in yeast, the domain comes from the species named
Conditions: Homo sapiens

Abundance fitness, by site and new letter:
K53: P -0.884; Y -0.616; T -0.428; W -0.888; S -0.318; M -0.049; N -0.544; G -0.826; Q -0.258; R -0.171
R56: A -0.085; N 0.38; E 0.387; M 0.123; S 0.015; L -0.075; T 0.002; G -0.325; Y -0.144; W -0.393
E54: T -1.06; L -0.787; C -0.897; V -0.634; K -0.591; W -0.902; G -0.808; H -0.906; S -0.679; A -0.788; F -0.836; Q -0.259; M -0.819
K55: P -0.764; M -0.264; N -0.147; E -0.259; S -0.368; A -0.1; R -0.027; I -0.604; T -0.417; W -0.497; C -0.017; F -0.194; D -0.223; V -0.069; Q -0.016; Y -0.259; G -0.392

Variants of: B2
Test: as above
Conditions: Homo sapiens

Abundance fitness of substitutions, site by site:
Y1: E 0.154; V 0.156; L 0.172; K 0.352; I 0.557; C 0.258; W 0.259; S -0.264; N -0.287; D -0.2; G 0.416
E17: D -0.047; S -0.087; N 0.07; R -0.148; H -0.882; V -0.489; T 0.053; P -0.558; A -0.081; C -0.037; Q -0.147; I -0.353; G -0.234; L -0.258; Y -0.031; F -0.162; M 0.152
T3: V -0.055; Q -0.069; A -0.179; G 0.136; M 0.377; P -0.09; K 0.363; C -0.048; Y 0.113; R 0.206; H -0.481; F 0.236; W 0.13; I -0.035; D -0.163; E 0.314
Y8: E 0.098; G 0.165; T -0.118; F 0.083; W -0.086; N 0.061; V 0.053; K 0.141; H 0.461; P 0.302; S -0.026; Q 0.499; L 0.215; I 0.21; R 0.25; C -0.211; A 0.207
G15: C -0.823; V -0.609; N -0.065; Y -0.03; T 0.088; Q -0.434; W -0.121; D -0.21; K 0.112; A 0.329; E -0.202; M 0.084; P -0.488; L -0.366
G16: M -0.237; V -0.113; T 0.234; L -0.097; K 0.346; E 0.07; I 0.079; R 0.197; W 0.025; P -0.423; Y 0.033; H -0.057; N 0.157; D -0.053; F -0.156; C -0.256; S 0.118; Q -0.251
C9: V -0.633; P -0.756; N -0.353; R -0.62; H -0.786; G -0.669; F -0.975; E -0.548; A -0.96; Y -0.74; Q -0.551; D -0.743; L -0.681; W -0.716; K -0.425
I18: P -0.191; G -0.087; F -0.071; Q -0.107; K -0.124; E 0.13; C -0.521; A 0.024; L -0.022; R -0.12; H 0.063; S -0.26; N -0.218
Q6: F -0.579; W -0.378; C -0.499; H -0.014; Y -0.267; S -0.439; G -0.299; D -0.294; E -0.227; P -0.353; R -0.139; A -0.209
D7: E -0.263; R -0.289; W -0.767; G -0.055; H -0.012; Y -0.522; K -0.044; F -0.37; T -0.036; N 0.044; V -0.083; P 0.134; A 0.043; L -0.727; S -0.154; Q -0.146; M -0.105
E2: R -0.086; M 0.549; H 0.126; S 0.125; N 0.526; A -0.263; G -0.011; Y 0.327; P -0.095; K 0.294; L 0.282; C 0.138; I 0.419; Q 0.231; T 0.34; V -0.232; W -0.006; D 0.327; F 0.285
E10: N 0.268; K 0.169; C 0.046; D 0.169; Q 0.116; M -0.301; T 0.132; H 0.114; V 0.137; A -0.083; G -0.139; P -0.006; Y 0.158; S 0.064; F -0.08; L 0.259; R 0.027
Q13: A -0.237; F 0.012; N -0.084; H 0.059; P -0.783; M 0.084; Y -0.015; D -0.346; G -0.194; R 0.01; C -0.048; S -0.019; K -0.051; W -0.363; E -0.09; V -0.057
Q14: H -0.159; V -0.129; G -0.151; F -0.26; N 0.016; T -0.051; P -1; D -0.166; A -0.043; Y -0.501; I -0.17; S -0.192; C -0.036; M -0.022; L -0.127; R 0.017; E -0.029
D4: W -0.088; A 0.133; I -0.156; T 0.079; V 0.166; C -0.066; M 0.438; N -0.406; L 0.077; F -0.055; Y -0.126; Q 0.075; R -0.203; G -0.001; K -0.041; H -0.136
C12: T -0.813; R -0.954; K -0.757; W -0.836; D -0.7; F -0.903; Y -0.871; S -0.956; I -0.947; A -0.712; H -0.999; E -0.83; N -0.67; L -0.866; V -0.78; G -0.845; P -0.76
H5: G 0.366; E -0.137; P -0.071; V 0.142; Q 0.13; R 0.118; L 0.161; D -1.03; F -0.171; T 0.186; N 0.229; S 0.302; C 0.222; W -0.197; A 0.329
V11: H 0.362; K 0.258; D 0.178; Y 0.085; Q -0.217; T 0.269; W -0.266; M 0.279; C 0.184; L 0.145; E 0.277; F 0.138; R 0.12; P 0.029; S 0.284; A -0.143; N 0.182
